Results on five substances are retold here after US20090036374A1.

Assay [1] has as its target hepatocyte growth factor (HGF) (UniProt P14210). Put plainly: cell-based or functional assay.
The target in assay [2] is Met on MDCK II cells (Madin-Darby canine kidney) (canine (cell line MDCK II)) (UniProt Q75ZY9). Put plainly: cell-based or functional assay.

Where only a bound is given, the exact number is not on record here.

In assay [1], “Met-885-Fc (Met-885 splice variant fused to human IgG1 Fc) (Fc fusion)” yielded an amount of inhibitory protein that gave roughly 50% inhibition of scattering, HGF ~5-7 ng/ml, MDCK and HT115 of 0.1 to 1 µg/mL; an inhibition of HGF-induced Met phosphorylation, A549 and MDA-MB-231 cells, doses higher than 3-10 nM greater than 90%; an inhibition of HGF-induced phosphorylation of Met Y1230/4/5, MDA-MB-231 cells, 3 nM variant greater than 60%; an inhibition of HGF-induced urokinase upregulation, MDCK II, 10 ng/ml HGF, 3 nM variant of 60 to 80%. In assay [1], this substance showed an inhibition of HGF-induced urokinase upregulation, MDCK II, 10 ng/ml HGF, doses higher than 10 nM greater than 95%; a scattering score, HT115, inhibitor 1 µg/ml, HGF 7 ng/ml of 1 score 1-5; a scattering score, HT115, inhibitor 5 µg/ml, HGF 7 ng/ml of 1 score 1-5; a scattering score, HT115, inhibitor 10 µg/ml, HGF 7 ng/ml of 1 score 1-5. In assay [1], this substance showed a scattering score, HT115, inhibitor 30 µg/ml, HGF 50 ng/ml of 2 score 1-5; a scattering score, MDCK, inhibitor 1 µg/ml, HGF 5 ng/ml of 2 score 1-5; a scattering score, MDCK, inhibitor 5 µg/ml, HGF 5 ng/ml of 2 score 1-5.
Regarding “hepatocyte growth factor (HGF) (from UniProt P14210 32-728) (ligand)”, the scattering score, MDCK, no inhibitor, HGF 5-100 ng/ml in assay [2] was found to be 5 score 1-5.
In assay [1], “Met-934-Fc (Met-934 splice variant fused to human IgG1 Fc) (Fc fusion)” yielded an amount of inhibitory protein that gave roughly 50% inhibition of scattering, HGF ~5-7 ng/ml, MDCK and HT115 of 0.1 to 1 µg/mL; an inhibition of HGF-induced Met phosphorylation, A549 and MDA-MB-231 cells, doses higher than 3-10 nM greater than 90%; an inhibition of HGF-induced phosphorylation of Met Y1230/4/5, MDA-MB-231 cells, 3 nM variant greater than 60%; an inhibition of HGF-induced urokinase upregulation, MDCK II, 10 ng/ml HGF, 3 nM variant of 60 to 80%. In assay [1], the inhibition of HGF-induced urokinase upregulation, MDCK II, 10 ng/ml HGF, doses higher than 10 nM was greater than 95%; the scattering score, MDCK, inhibitor 10 µg/ml, HGF 50 ng/ml amounted to 3 score 1-5; the scattering score, MDCK, inhibitor 10 µg/ml, HGF 100 ng/ml stood at 5 score 1-5; the scattering score, MDCK, inhibitor 30 µg/ml, HGF 50 ng/ml is 2 score 1-5. In assay [1], this substance yielded a scattering score, MDCK, inhibitor 100 µg/ml, HGF 100 ng/ml of 1 score 1-5.
For “Met-877-Fc (Met-877 splice variant fused to human IgG1 Fc) (Fc fusion)”, in assay [1], the amount of inhibitory protein that gave roughly 50% inhibition of scattering, HGF ~5-7 ng/ml, MDCK and HT115 fell in the range of 0.1 to 1 µg/mL; the inhibition of HGF-induced Met phosphorylation, A549 and MDA-MB-231 cells, doses higher than 3-10 nM was greater than 90%; the inhibition of HGF-induced phosphorylation of Met Y1230/4/5, MDA-MB-231 cells, 3 nM variant is greater than 60%; the inhibition of HGF-induced proliferation of AsPC-1 cells (BrdU incorporation), 10 ng/ml HGF, 877-Fc at 100 and 300 nM is 90%. Moreover, in assay [1], the inhibition of HGF-induced urokinase upregulation, MDCK II, 10 ng/ml HGF, 3 nM variant was in the range of 60 to 80%; the inhibition of HGF-induced urokinase upregulation, MDCK II, 10 ng/ml HGF, 10 nM variant came out at 80%; the inhibition of HGF-induced urokinase upregulation, MDCK II, 10 ng/ml HGF, doses higher than 10 nM was greater than 95%; the inhibition of HGF-induced urokinase upregulation, MDCK II, 10 ng/ml HGF, variant at 50 nM or more was greater than 95%. For the same substance, in assay [1], the scattering score, HT115, inhibitor 0.1 µg/ml, HGF 3 ng/ml is 2 score 1-5; the scattering score, HT115, inhibitor 0.1 µg/ml, HGF 5 ng/ml is 3 score 1-5; the scattering score, HT115, inhibitor 5 µg/ml, HGF 5 ng/ml came to 1 score 1-5; the scattering score, HT115, inhibitor 5 µg/ml, HGF 7 ng/ml turned out to be 1 score 1-5. In assay [1], this substance yielded a scattering score, HT115, inhibitor 10 µg/ml, HGF 1 ng/ml of 1 score 1-5; a scattering score, HT115, inhibitor 10 µg/ml, HGF 3 ng/ml of 1 score 1-5; a scattering score, HT115, inhibitor 10 µg/ml, HGF 5 ng/ml of 1 score 1-5; a scattering score, HT115, inhibitor 10 µg/ml, HGF 7 ng/ml of 1 score 1-5. Besides, in assay [1], the scattering score, HT115, inhibitor 10 µg/ml, HGF 50 ng/ml was found to be 2 score 1-5; the scattering score, HT115, inhibitor 100 µg/ml, HGF 50 ng/ml was found to be 1 score 1-5; the scattering score, MDCK, inhibitor 0.1 µg/ml, HGF 7 ng/ml stood at 5 score 1-5; the scattering score, MDCK, inhibitor 1 µg/ml, HGF 1 ng/ml turned out to be 1 score 1-5. In assay [1], this substance came in with a scattering score, MDCK, inhibitor 1 µg/ml, HGF 5 ng/ml of 3 score 1-5; a scattering score, MDCK, inhibitor 1 µg/ml, HGF 7 ng/ml of 3 score 1-5; a scattering score, MDCK, inhibitor 1 µg/ml, HGF 10 ng/ml of 3 score 1-5; a scattering score, MDCK, inhibitor 5 µg/ml, HGF 10 ng/ml of 2 score 1-5. In assay [1], this substance gave a scattering score, MDCK, inhibitor 10 µg/ml, HGF 1 ng/ml of 1 score 1-5; a scattering score, MDCK, inhibitor 10 µg/ml, HGF 5 ng/ml of 1 score 1-5; a scattering score, MDCK, inhibitor 10 µg/ml, HGF 7 ng/ml of 1 score 1-5; a scattering score, MDCK, inhibitor 10 µg/ml, HGF 10 ng/ml of 1 score 1-5. In assay [1], this substance gave a scattering score, MDCK, inhibitor 10 µg/ml, HGF 30 ng/ml of 2 score 1-5; a scattering score, MDCK, inhibitor 30 µg/ml, HGF 10 ng/ml of 1 score 1-5; a scattering score, MDCK, inhibitor 30 µg/ml, HGF 30 ng/ml of 1 score 1-5; a scattering score, MDCK, inhibitor 30 µg/ml, HGF 100 ng/ml of 2 score 1-5. In assay [1], the scattering score, MDCK, inhibitor 100 µg/ml, HGF 100 ng/ml is 1 score 1-5.
For the substance “Met-877 His tag protein (Met-877 splice variant with C-terminal Strep II and 8xHis tags) (from UniProt P08581 25-861) (receptor)”, in assay [1], the amount of inhibitory protein that gave roughly 50% inhibition of scattering, HGF ~5-7 ng/ml, MDCK and HT115 was in the range of 0.1 to 1 µg/mL; the inhibition of HGF-induced Met tyrosine phosphorylation, A431 or A549 cells, 100 µg/ml Met-877, 10 ng/ml HGF came out at 70%; the inhibition of Met tyrosine phosphorylation, NCI-H441 cells (constitutive phosphorylation), 100 µg/ml Met-877, 10 ng/ml HGF was determined as 40%; the scattering score, HT115, inhibitor 1 µg/ml, HGF 7 ng/ml was 1 score 1-5. Besides, in assay [1], the scattering score, HT115, inhibitor 5 µg/ml, HGF 7 ng/ml turned out to be 1 score 1-5; the scattering score, HT115, inhibitor 10 µg/ml, HGF 7 ng/ml turned out to be 1 score 1-5; the scattering score, HT115, inhibitor 10 µg/ml, HGF 50 ng/ml worked out at 3 score 1-5; the scattering score, HT115, inhibitor 100 µg/ml, HGF 50 ng/ml came to 1 score 1-5. In assay [1], this substance returned a scattering score, MDCK, inhibitor 0.1 µg/ml, HGF 5 ng/ml of 5 score 1-5; a scattering score, MDCK, inhibitor 30 µg/ml, HGF 50 ng/ml of 4 score 1-5; a scattering score, MDCK, inhibitor 100 µg/ml, HGF 50 ng/ml of 3 score 1-5.
